# In US11674962B2, “Therapeutic and diagnostic methods for cancer” (Genentech, Inc., priority 2017, dated 2023):
# Several values for one entry are separate records, joined by “and”; a condition that tells them apart may be missing. Equal values may be shown once.
# Experiments:
# [1] = test system: locally advanced or metastatic non-small cell lung cancer (NSCLC); test: POPLAR phase II clinical trial (NCT01903993): atezolizumab vs docetaxel, outcomes by bTMB score; format: in vivo, human; conditions: for OS HR (95% CI) / PFS HR (95% CI) / OS HR / PFS HR: atezolizumab vs docetaxel
# Procedure: A blood-based assay was used to evaluate the association between clinical response to treatment with atezolizumab (MPDL3280A) and blood tumor mutational burden (bTMB) score in patients with non-small cell lung cancer (NSCLC) enrolled in two clinical trials, a phase II clinical trial, POPLAR (Clinical Trial ID No.: NCT01903993), and a phase III clinical trial, OAK (Clinical Trial ID No.: NCT02008227), in which atezolizumab was administered as a monotherapy.
# Pre-treatment blood samples from patients with NSCLC who were enrolled in the POPLAR and/or the OAK studies, in which atezolizumab was administered as a monotherapy, were evaluated for bTMB score and/or maximum somatic allele frequency (MSAF).
# The POPLAR (Clinical Trial ID No.: NCT01903993) patient population evaluated for bTMB score consisted of 273 patients. Patients were eligible for enrollment in the POPLAR study if they had locally advanced or metastatic (e.g., stage IIIB, stage IV, or recurrent) non-small cell lung cancer (NSCLC); disease progression during or following treatment with a prior platinum-containing regimen for locally advanced, unresectable/inoperable, or metastatic NSCLC, or disease recurrence within 6 months of treatment with a platinum-based adjuvant/neoadjuvant regimen; measurable disease, as defined by RECIST v1.1; and an Eastern Cooperative Oncology Group (ECOG) performance status of 0 or 1. Participants were randomized to receive either atezolizumab at a dose of 1200 mg intravenously every three weeks or docetaxel 75 mg per meter square (mg/m^2) intravenously every three weeks. Treatment with atezolizumab could be continued as long as participants were experiencing clinical benefit, i.e., in the absence of unacceptable toxicity or symptomatic deterioration attributed to disease progression.
# Analysis of bTMB was performed retrospectively. Progression-free survival (PFS) was defined as the time between date of randomization and date of first documented disease progression as assessed by the investigator using RECIST v.1.1 or death from any cause, whichever occurred first. Overall survival (OS) was defined as the time between the date of randomization until death due to any cause. Treatment arms were compared for OS and PFS individually using a univariate Cox regression model without stratification in the biomarker evaluable-population (BEP) and their subgroups or using a stratified (by randomization stratification factors) Cox model in the ITT population. No multiplicity correction was applied to p-values or confidence intervals (CI). Kaplan-Meier methodology was used to estimate median OS and PFS and construct survival curves.
# In the POPLAR ITT population (N=287), 273 samples were available for analysis. Of these, 6 were removed for sample contamination >1%; 9 were removed for median exon coverage <800×; and 47 were removed for low MSAF<1%.
# The POPLAR BEP (N=211) includes 15 patients with EGFR mutation or ALK rearrangement, and 196 without known alterations.
# To identify somatic mutations and calculate a bTMB score, whole blood samples obtained from each patient (collected in EDTA or Streck tubes) were processed through a series of spins to isolate plasma, from which cell free DNA (cfDNA) was extracted for sequencing analysis. Specifically, at least 20 ng purified cfDNA was used for library construction. Next-generation sequencing libraries using fragment barcodes and hybrid capture were constructed to analyze and sequence a pre-determined set of 394 genes that covered approximately 1.125 Mb of the exome. Specifically, purified libraries were hybrid captured using a 394-gene bait set and then further purified, pooled and loaded on an ILLUMINA® HISEQ® 4000 sequencing system. Sequenced libraries were aligned and sorted. […]
# [2] = test system: treatment-naive, locally advanced or metastatic (stage IIIB-IVB) NSCLC; test: B-F1RST phase II trial (NCT02848651) interim analysis: safety (adverse events) of atezolizumab; format: in vivo, human
# Description: The B-F1 RST (Clinical Trial ID No.: NCT02848651) patient population being evaluated for bTMB score consists of approximately 150 patients at 20 to 25 study sites (N=153). Patients are eligible for enrollment in the B-F1 RST study if they have treatment-naïve, locally advanced or metastatic (e.g., stage IIIB-IVB) NSCLC; measurable disease, as defined by RECIST v1.1; and an ECOG performance status of 0 or 1. Exclusion criteria include sensitizing EGFR mutations or ALK rearrangements; active brain metastases requiring treatment; leptomeningeal disease; other malignancies within 5 years of enrollment; HBV, HCV, or HIV infection; or history of autoimmune disorder. Participants are divided into cohorts based on bTMB score and receive atezolizumab at a dose of 1200 mg intravenously every three weeks. All patients undergo tumor assessment at baseline and every 6 weeks for the first 12 months following cycle 1, day 1, and then every 9 weeks therafter. Treatment with atezolizumab can be continued as long as participants were experiencing clinical benefit, i.e., in the absence of unacceptable toxicity or symptomatic deterioration attributed to disease progression. Tumor assessments continue until disease progression per RECIST v1.1 or loss of clinical benefit (investigator assessed), consent withdrawal, study discontinuation, study completion, or death. Mandatory blood samples are taken at baseline, during therapy, and at progression to evaluate changes in exploratory biomarkers. The interim analysis was prespecified to occur at 6 months after 50% of the patients have been enrolled, with a prespecified bTMB score of ≥16. The co-primary endpoints are the clinical efficacy of atezolizumab (as evaluated by investigator-assessed ORR per RECIST v1.1) and the relationship between bTMB and PFS benefit (as evaluated by investigator-assessed PFS per RECIST v1.1). The secondary objectives are safety and assessment of efficacy by investigator-assessed duration of response (DOR) and OS.
# Of 78 treated patients in the interim analysis population (IAP) from the B-F1 RST study, 58 had adequate blood samples with sufficient detection of circulating tumor DNA (MSAF≥1%) and comprised the biomarker-evaluable population (BEP). One patient of the IAP was never treated and therefore not safety- or efficacy-evaluable. A bTMB score of 16 (prevalence, 19% [11/58]) was prespecified to evaluate clinical efficacy in the BEP (bTMB high, ≥16; bTMB low, <16). Statistical tests were 2-sided at a 0.1 level and 90% confidence interval.
# [3] = bTMB score subgroup ≥10 (96 patients)
# [4] = bTMB score subgroup ≥16 (63 patients)
# [5] = bTMB score subgroup ≥20 (42 patients)
substance,measurement,setting,value
atezolizumab,OS HR (95% CI),[1]; BEP (n = 211),0.68
same,PFS HR (95% CI),[1]; BEP (n = 211),0.9
same,OS HR (95% CI),[1]; ITT (n = 287),0.69 and 0.73
same,PFS HR (95% CI),[1]; ITT (n = 287),0.92 and 0.94
same,OS HR,[1]; [3],0.59
same,PFS HR,[1]; [3],0.68
same,OS HR,[1]; [4],0.56
same,PFS HR,[1]; [4],0.57
same,OS HR,[1]; [5],0.51
same,PFS HR,[1]; [5],0.58
same,median OS,"[1]; bTMB≥16, per treatment arm",13.0 months
same,median PFS,"[1]; bTMB≥16, per treatment arm",4.2 months
same,PFS HR,"[1]; reference bTMB score of 18 (Dx+, n=52)",0.57
same,Treatment-related Grade 5 AEs,[2]; Patients in IAP (n = 78),^bNo treatment-related Grade 5 AEs were reported.
same,"Grade 5 AEs, any cause","[2]; Patients in IAP (n = 78), reported as death, cardiac arrest, pulmonary embolism (n = 1 each)",3 (3.8%) n (%)
same,AE of special interest: Adrenal insufficiency,[2]; in vivo,1 (1.3%) n (%)
same,"AEs leading to discontinuation, patients",[2]; in vivo,15.4%
same,AEs leading to treatment discontinuation,[2]; in vivo,12 (15.4%) n (%)
same,"AEs, any cause",[2]; in vivo,78 (100.0%) n (%)
same,"Grade 3-4 AEs, any cause",[2]; in vivo,40 (51.3%) n (%)
same,"SAEs, any cause",[2]; in vivo,35 (44.9%) n (%)
same,Treatment-related AEs,[2]; in vivo,59 (75.6%) n (%)
same,Treatment-related Grade 3-4 AEs,[2]; in vivo,15 (19.2%) n (%)
same,Treatment-related SAEs,[2]; in vivo,12 (15.4%) n (%)
same,"Treatment-related serious AEs, patients",[2]; in vivo,14.1%
same,tolerability,[2]; in vivo,well tolerated
same,"treatment-related grade 3/4 AEs, patients",[2]; in vivo,16.7%
